Assay results from US20100080799A1 (ROCKEFELLER UNIVERSITY, published 2010).
Where no end group is shown, it is not given here. [ ]: non-standard residue; d: D form. pS = N[C@@H](COP(=O)(O)O)C(=O)O

Key:
[1] = molecular target: T1, GST-tagged N-motif (1-205) of the WSTF kinase domain (human, UniProt Q9UIG0 1-205); assay: co-expression in E. coli, amylose affinity purification against the MBP tag, Superdex 200 gel filtration
T1 construct: Made in E. coli; also called GST-tagged WAC N-; N-terminal motif; not shown: N-terminal GST tag of pGex6p
T1 sequence: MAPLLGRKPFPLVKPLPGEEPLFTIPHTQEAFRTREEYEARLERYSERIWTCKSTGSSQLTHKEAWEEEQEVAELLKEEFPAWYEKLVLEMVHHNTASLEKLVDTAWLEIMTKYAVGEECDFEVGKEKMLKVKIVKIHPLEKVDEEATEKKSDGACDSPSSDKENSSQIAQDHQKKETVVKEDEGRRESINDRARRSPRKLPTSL
Method: For co-expression of the N- and C-motifs of WSTF, the recombinant plasmid vectors carrying the N- and C-motif constructs (above) were transformed into E. coli host strain Rosetta2 (DE3) (Novagen) for protein expression under triple antibiotic selection (ampicillin, kanamycin, and chloramphenicol) in LB medium. After overnight induction by 0.4 mM isopropyl β-D-thiogalactoside at 25° C., cells were harvested in buffer 0.4 M KCl, 20 mM Tris, pH 7.5. Co-expressed proteins were affinity purified using Amylose resin (New England Biolabs, MA) against the MBP tag. Maltose-eluted samples were purified through a Superdex 200 column (GE Healthcare) in the elution buffer (50 mM KCL, 20 mM Tris, pH 7.5). Most proteins were eluted in a single peak that contains GST-tagged […] with a stoichiometry of 1:1.

[2] = molecular target: endogenous BRCA1 from 293T cell nuclear extracts (UniProt P38398 1-1863, limits assumed); assay: peptide pull-down from 293T nuclear extracts (FIG. 4I)
Chain of endogenous BRCA1 from 293T cell nuclear extracts (P38398 whole entry): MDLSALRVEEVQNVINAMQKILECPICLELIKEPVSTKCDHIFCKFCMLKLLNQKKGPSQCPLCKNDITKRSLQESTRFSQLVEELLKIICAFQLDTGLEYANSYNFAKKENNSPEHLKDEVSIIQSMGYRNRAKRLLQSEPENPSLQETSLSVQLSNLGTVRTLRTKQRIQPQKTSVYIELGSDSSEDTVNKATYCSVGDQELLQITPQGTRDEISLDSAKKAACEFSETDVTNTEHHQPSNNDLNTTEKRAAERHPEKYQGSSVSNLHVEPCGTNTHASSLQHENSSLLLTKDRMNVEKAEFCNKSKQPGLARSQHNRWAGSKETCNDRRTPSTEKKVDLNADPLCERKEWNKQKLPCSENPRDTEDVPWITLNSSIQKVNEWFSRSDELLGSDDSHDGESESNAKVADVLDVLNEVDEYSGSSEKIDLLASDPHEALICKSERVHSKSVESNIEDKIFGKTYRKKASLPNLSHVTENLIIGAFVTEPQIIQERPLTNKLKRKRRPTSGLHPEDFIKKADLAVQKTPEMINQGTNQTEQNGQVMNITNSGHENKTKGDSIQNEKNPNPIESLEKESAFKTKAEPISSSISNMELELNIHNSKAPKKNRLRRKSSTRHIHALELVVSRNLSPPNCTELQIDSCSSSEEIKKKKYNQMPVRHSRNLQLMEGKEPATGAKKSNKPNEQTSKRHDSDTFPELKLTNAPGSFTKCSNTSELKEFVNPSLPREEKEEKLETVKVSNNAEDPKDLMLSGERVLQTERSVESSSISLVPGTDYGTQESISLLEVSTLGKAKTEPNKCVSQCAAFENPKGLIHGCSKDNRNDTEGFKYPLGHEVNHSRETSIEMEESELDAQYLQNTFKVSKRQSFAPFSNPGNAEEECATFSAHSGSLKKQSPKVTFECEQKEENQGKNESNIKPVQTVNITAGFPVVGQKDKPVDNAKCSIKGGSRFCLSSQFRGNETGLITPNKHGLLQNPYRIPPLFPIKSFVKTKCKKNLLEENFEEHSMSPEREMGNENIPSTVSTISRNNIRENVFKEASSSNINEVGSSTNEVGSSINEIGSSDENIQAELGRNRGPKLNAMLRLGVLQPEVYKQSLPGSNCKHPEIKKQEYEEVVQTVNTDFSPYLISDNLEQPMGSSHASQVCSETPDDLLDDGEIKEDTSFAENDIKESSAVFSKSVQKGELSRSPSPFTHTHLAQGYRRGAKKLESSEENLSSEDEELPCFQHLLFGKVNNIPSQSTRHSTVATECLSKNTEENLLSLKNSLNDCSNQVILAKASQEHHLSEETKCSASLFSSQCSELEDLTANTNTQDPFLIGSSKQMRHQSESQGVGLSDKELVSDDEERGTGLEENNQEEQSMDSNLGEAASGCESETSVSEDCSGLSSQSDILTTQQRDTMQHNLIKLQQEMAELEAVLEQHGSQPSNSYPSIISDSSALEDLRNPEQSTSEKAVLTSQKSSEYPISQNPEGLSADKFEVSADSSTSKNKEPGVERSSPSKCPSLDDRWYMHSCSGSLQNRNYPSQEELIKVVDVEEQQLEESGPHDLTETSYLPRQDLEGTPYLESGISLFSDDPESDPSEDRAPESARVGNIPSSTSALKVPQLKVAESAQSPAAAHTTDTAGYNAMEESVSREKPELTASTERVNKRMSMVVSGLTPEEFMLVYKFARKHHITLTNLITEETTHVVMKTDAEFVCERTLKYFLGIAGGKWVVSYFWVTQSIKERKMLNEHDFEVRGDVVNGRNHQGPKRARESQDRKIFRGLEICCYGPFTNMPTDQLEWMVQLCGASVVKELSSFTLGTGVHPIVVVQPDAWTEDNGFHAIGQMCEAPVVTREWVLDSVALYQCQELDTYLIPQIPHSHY

B1: MBP-tagged C-motif (208-345) of the WSTF kinase domain (other)
chain: GERKWAPPKFLPHKYDVKLQNEDKIISNVPADSLIRTERPPNKEIVRYFIRHNALRAGTGENAPWVVEDELVKKYSLPSKFSDFLLDPYKYMTLNPSTKRKNTGSPDRKPSKKSKTDNSSLSSPLNPKLWCHVHLKKS
notes: Made in E. coli; also called MBP-tagged WAC C-motif; not shown: N-terminal MBP tag of a modified pRSFDuet-1
- binding result [1]: binds

B2: H2A.X peptide S139(ph), N-CPSGGKKATQApSQEY-C (peptide)
peptide: CPSGGKKATQA[pS]QEY
notes: Pull-down peptide; also called Ser139(ph) peptides; H2A.X peptides singly phosphorylated on Ser139
- binding result [2]: no binding
